The text below walks through data of paper PMC2845550, “Heterologous expression of leader-less pga gene in Pichia pastoris: intracellular production of prokaryotic enzyme” (BMC Biotechnology, 2010).

Substrate in data set [1]: CC1(C)S[C@@H]2[C@H](NC(=O)Cc3ccccc3)C(=O)N2[C@H]1C(=O)O
Kind of data set: purified protein. It is filed as biochemical, Escherichia coli. As to conditions: 37 °C, substrate 5-100 μM.

Substrate in data set [2]: O=C(Cc1ccccc1)Nc1ccc([N+](=O)[O-])c(C(=O)O)c1
Kind of data set: purified protein. It is filed as biochemical, Escherichia coli. As to conditions: 50 mM phosphate buffer, pH 8, 37 °C, substrate 7-2000 μM.

B1: PGAEc (Escherichia coli) (protein)
chain 1: EQSSSEIKIVRDEYGMPHIYANDTWHLFYGYGYVVAQDRLFQMEMARRSTQGTVAEVLGKDFVKFDKDIRRNYWPDAIRAQIAALSPEDMSILQGYADGMNAWIDKVNTNPETLLPKQFNTFGFTPKRWEPFDVAMIFVGTMANRFSDSTSEIDNLALLTALKDKYGVSQGMAVFNQLKWLVNPSAPTTIAVQESNYPLKFNQQNSQTA
chain 2: SNMWVIGKSKAQDAKAIMVNGPQFGWYAPAYTYGIGLHGAGYDVTGNTPFAYPGLVFGHNGVISWGSTAGFGDDVDIFAERLSAEKPGYYLHNGKWVKMLSREETITVKNGQAETFTVWRTVHGNILQTDQTTQTAYAKSRAWDGKEVASLLAWTHQMKAKNWQEWTQQAAKQALTINWYYADVNGNIGYVHTGAYPDRQSGHDPRLPVPGTGKWDWKGLLPFEMNPKVYNPQSGYIANWNNSPQKDYPASDLFAFLWGGADRVTEIDRLLEQKPRLTADQAWDVIRQTSRQDLNLRLFLPTLQAATSGLTQSDPRRQLVETLTRWDGINLLNDDGKTWQQPGSAILNVWLTSMLKRTVVAAVPMPFDKWYSASGYETTQDGPTGSLNISVGAKILYEAVQGDKSPIPQAVDLFAGKPQQEVVLAALEDTWETLSKRYGNNVSNWKTPAMALTFRANNFFGVPQAAAEETRHQAEYQNRGTENDMIVFSPTTSDRPVLAWDVVAPGQSGFIAPDGTVDKHYEDQLKMYENFGRKSLWLTKQDVEAHKESQEVLHVQR
notes: mature periplasmic heterodimer cut from 846-residue preproprotein; homologous expression in E. coli RE3(pKA18), untagged
For B1, in the data set “purified protein [1]”, the Km was 34 µM and the kcat is 13.6 s⁻¹. Further, in the data set “purified protein [2]”, the Km is 28 µM, the Vmax is 15000 µM/min and the kcat was 1.6 s⁻¹.
